# B1: Phosphatidylinositol 4,5-bisphosphate 3-kinase catalytic subunit delta isoform (Homo sapiens), O00329 (parent)
# chain: MPPGVDCPMEFWTKEENQSVVVDFLLPTGVYLNFPVSRNANLSTIKQLLWHRAQYEPLFHMLSGPEAYVFTCINQTAEQQELEDEQRRLCDVQPFLPVLRLVAREGDRVKKLINSQISLLIGKGLHEFDSLCDPEVNDFRAKMCQFCEEAAARRQQLGWEAWLQYSFPLQLEPSAQTWGPGTLRLPNRALLVNVKFEGSEESFTFQVSTKDVPLALMACALRKKATVFRQPLVEQPEDYTLQVNGRHEYLYGSYPLCQFQYICSCLHSGLTPHLTMVHSSSILAMRDEQSNPAPQVQKPRAKPPPIPAKKPSSVSLWSLEQPFRIELIQGSKVNADERMKLVVQAGLFHGNEMLCKTVSSSEVSVCSEPVWKQRLEFDINICDLPRMARLCFALYAVIEKAKKARSTKKKSKKADCPIAWANLMLFDYKDQLKTGERCLYMWPSVPDEKGELLNPTGTVRSNPNTDSAAALLICLPEVAPHPVYYPALEKILELGRHSECVHVTEEEQLQLREILERRGSGELYEHEKDLVWKLRHEVQEHFPEALARLLLVTKWNKHEDVAQMLYLLCSWPELPVLSALELLDFSFPDCHVGSFAIKSLRKLTDDELFQYLLQLVQVLKYESYLDCELTKFLLDRALANRKIGHFLFWHLRSEMHVPSVALRFGLILEAYCRGSTHHMKVLMKQGEALSKLKALNDFVKLSSQKTPKPQTKELMHLCMRQEAYLEALSHLQSPLDPSTLLAEVCVEQCTFMDSKMKPLWIMYSNEEAGSGGSVGIIFKNGDDLRQDMLTLQMIQLMDVLWKQEGLDLRMTPYGCLPTGDRTGLIEVVLRSDTIANIQLNKSNMAATAAFNKDALLNWLKSKNPGEALDRAIEEFTLSCAGYCVATYVLGIGDRHSDNIMIRESGQLFHIDFGHFLGNFKTKFGINRERVPFILTYDFVHVIQQGKTNNSEKFERFRGYCERAYTILRRHGLLFLHLFALMRAAGLPELSCSKDIQYLKDSLALGKTEEEALKHFRVKFNEALRESWKTKVNWLAHNVSKDNRQ
# Variants of: B1
# Conditions: with p85a_human PIK3R1, P27986
# Chain of p85a_human PIK3R1, P27986 (P27986 whole entry): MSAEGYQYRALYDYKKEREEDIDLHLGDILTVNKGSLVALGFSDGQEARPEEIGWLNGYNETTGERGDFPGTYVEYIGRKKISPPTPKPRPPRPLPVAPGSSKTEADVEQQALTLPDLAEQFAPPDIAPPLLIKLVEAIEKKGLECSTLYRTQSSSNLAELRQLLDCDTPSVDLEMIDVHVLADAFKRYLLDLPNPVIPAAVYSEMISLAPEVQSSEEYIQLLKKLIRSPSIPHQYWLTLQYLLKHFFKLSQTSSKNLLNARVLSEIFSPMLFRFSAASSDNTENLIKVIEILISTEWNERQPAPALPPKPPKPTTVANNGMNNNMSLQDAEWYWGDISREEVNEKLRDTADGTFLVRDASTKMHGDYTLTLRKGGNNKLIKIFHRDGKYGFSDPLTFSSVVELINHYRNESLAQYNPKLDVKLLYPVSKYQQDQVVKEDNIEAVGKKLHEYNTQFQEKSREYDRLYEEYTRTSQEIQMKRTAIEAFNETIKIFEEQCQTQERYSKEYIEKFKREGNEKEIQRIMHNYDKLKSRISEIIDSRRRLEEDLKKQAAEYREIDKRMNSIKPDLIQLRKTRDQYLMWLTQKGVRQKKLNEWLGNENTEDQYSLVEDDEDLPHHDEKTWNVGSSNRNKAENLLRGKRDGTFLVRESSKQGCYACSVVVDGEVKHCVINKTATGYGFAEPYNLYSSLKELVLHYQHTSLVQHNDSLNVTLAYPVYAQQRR
row,effect of a mutation on the interaction,Variant
1,with no effect,E525K
2,with no effect,E1021K
